Measurements as given in article doi:10.1101/2024.07.15.603533 (bioRxiv, 2024).

B1: recombinant kinetoplastid membrane protein-11 (r-KMP-11), wild type (natural protein, Leishmania donovani)
chain: MATTYEEFSAKLDRLDQEFNRKMQEQNAKFFADKPDESTLSPEMREHYEKFERMIKEHTEKFNKKMHEHSEHFKQKFAELLEQQKAAQYPSK

Legend:
[1] = target: the molecule itself; assay: negative stain electron microscopy
[2] = target: the molecule itself; assay: single-molecule photobleaching step analysis
[3] = target: B1; assay: fluorescence correlation spectroscopy

Row | Binder | stoichiometry N [1] | stoichiometry N [2] | binding result [3]
1 | B1 | 4 | – | –
2 | Alexa488-maleimide labelled r-KMP-11 S38C (natural protein, Leishmania donovani, Alexa 488 maleimide on the single cysteine (S38C); labeling percentage 86%) MATTYEEFSAKLDRLDQEFNRKMQEQNAKFFADKPDECTLSPEMREHYEKFERMIKEHTEKFNKKMHEHSEHFKQKFAELLEQQKAAQYPSK | – | 4 | binds
